The target in this assay is RBD-biotin. The assay can be described thus: BLI. Background: Biolayer interferometry detects binding as a change in optical thickness at a sensor tip.

In general, Kd refers to the concentration at which binding is half-saturated. The low end stands for a tighter complex, the high end for a looser complex.

B1: Ab 27 (Fc fusion)
VH: QVQLVQSGTEVKKPGASVKVSCKASGYSFTGSHLHWVRQAPGQGLEWMGWINPDSGVINYAQKFQGRVTLTRDTSISTAYMELSGLRSDDTAVYYCARDKAIGYVWALDYWGQGTLVTVSS
VL: QSALTQPPSVSGSPGQSVTISCTGTSSDVGTYNRVSWYQQPPGKAPKLMIYEVSNRPSGVSNRFSGSKSGNTASLTISGLQAEDEADYYCSSYTRTFTYVFGTGTKVTVL
The molecule B1 registered a Kd of 0.906 nM.

B2: Ab 18 (scFv, V domains shown)
VH: EVQLVQSGGGVVQPGRSLRVSCAASGFSFSRYGMHWVRQAPGKGLEWVAFIRHDGSKKYYADSVEGRFTISRDNSRNTVSLEMNSLRGEDTAVYYCAKDGRLEAALDDWGQGTLVTVSS
VL: NFMLTQPHSMSGSAGKTVTVSCIRSSGSIANNFVQWYQQRPGSAPTTVIYEDNQRPSGVPDRFSGSIDSSSNSASLTISGLKTEDEADYYCQSYDSSNLVFGGGTRLTVL
Take B2: the dissociation constant Kd turned out to be 2.31 nM.

B3: Ab 25 (Fc fusion)
VH: QVQLVQSGGGLVQPGGSLRLSCAASGFTFSSYWMSWVRQAPGKGLEWVANIKQDGSEKYYVDSVKGRFTISRDNAKNSLYLQMNSLRAEDTAVYYCARGFYYYGAFDIWGQGTTVTVSS
VL: NFMLTQPHSVSESPGKTVTISCTGSSGSIASNYVQWYQQRPGSAPTTVIYEDNQRPSGVPDRFSGSIGSSSNSASLTISGLKTEDEADYYCQSYDSSNHWVFGGGTKLTVL
Consider B3, for which the Kd was found to be 0.223 nM.

B4: Ab 20 (scFv, V domains shown)
VH: QVQLVQSGGGSVKPGGSLRLSCAASGYRLSDYYMHWVRQAPGKGLEWVANIKQDGSEKYYVDSVKGRFTISRDNAKNSLYLQMNSLRAEDTAVYYCARVRGWSRGYFDYWGQGTLVTVSS
VL: NFMLTQPHSVSESPGKTVTISCTGSSGSIASNYVQWYQQRPGSAPTTVIYEDNQRPSGVPDRFSGSIDSSSNSASLLISGLKTEDEADYYCQSYDSSNHWVFGGGTKLTVL
Turning to B4, the affinity, expressed as Kd, was 1.9 nM.

B5: Ab 13 (scFv, V domains shown)
VH: QVTLKESGPKLVKPTQTLTLTCTFSGFSLSTSGVGVGWIRQPPGKALEWLALIYWDDDKRYSPSLKSRLTIAKDTSKYQVVLTMTNMDPVDTATYYCARISGSGYFYPFDIWGQGTMVTVSA
VL: NFMLTQPHSVSESPGKTVTISCTRSSGSIASNYVQWYQQRPGSAPTTVIYEDNQRPSGVPDRFSGSIDSSSNSASLTISGLKTEDEADYYCQSYDSSNLWVFGGGTKLTVL
For B5, the dissociation constant Kd worked out at 0.922 nM.

B6: Ab 16 (scFv, V domains shown)
VH: QVQLVQSGGGVVQPGRSLRLSCAASGFTFSNYGMHWVRQAPGKGLEWVALIWERGSKKDYADSVKGRFTVSRDNSKNTLYLQMNSLRPEDTAVYFCAREGISMTGAEYFQHWGQGTLVTVSS
VL: QSVLTQPPSVSGSPGQRVTMSCTGSSSNIGAGYDVHWYQQVPGAAPRLLIYGTNNRPSGVPDRFSGSKSGTSASLTITGLQAEDEADYYCQSYDNSLTDPYVFGTGTKVTVL
B6 came in with a Kd of 0.959 nM.

B7: Ab 21 (scFv, V domains shown)
VH: QVQLVQSGGGLVQPGGSLRLSCATSGFTFDDYAMHWVRQAPGKGLEWVSGISWNSGSIGYVDSVKGRFTISRDNRNNKVYLQMNNLRAEDTAVYYCARDWWGSIDHWGLGTLVTVSS
VL: QSALTQPRSVSGSPGQSVTISCTGTSSDVGGYDYVSWYQQHPGKAPKLIIYDVSKRPSGVPDRFSGSKSGNTASLTVSGLQAEDEADYYCSSYTSSSPVVFGGGTKLTVL
Molecule B7 registered a Kd of 1.48 nM.

B8: Ab 17 (scFv, V domains shown)
VH: QVQLVQSGGGVVQPGRSLRLSCAASGFTFDDYAMHWVRQVPGKGLEWVSGIDWNSGVIGYADSVKGRFTISRDNVKNSLYLQMNSLRTEDSALYYCAKDIGPGGSGSYYAFDIWGQGTTVTVSS
VL: QSALTQPASVSGSPGQSITISCTGTSSDVGGSKYVSWYQQHPGKAPKVMIYDVTKRPSGVPDRFSGSKSGNTASLTISGLQAEDEADYYCAAWDDSLNGVVFGGGTKLTVL
Take B8: the equilibrium dissociation constant (Kd) is 0.882 nM.

B9: Ab 23 (Fc fusion)
VH: EVQLVQSGAEVKKPGSSVKVSCRSSGGTFSTYGITWVRQAPGQGLEWMGRIIPSLGIPNYAQKFQGRVTITADTSVSTAWMELSSLESDDTAIYYCARENIDLATNDFWGQGTLVTVSS
VL: QSALTQPPSASGSPGQSVTISCTGTSRDIGAYGYVSWYQQVPGKAPKLIIYEVRNRPSGVSSRFSGSKSGNTASLTISGLQAEDEADYYCSSYTSSSTLDVVFGGGTKLTVL
Regarding B9, the equilibrium dissociation constant (Kd) was less than 0.001 nM.

B10: Ab 15 (Fc fusion)
VH: QVQLVQSGGGLVKPGRSLRLSCTASGFTFGDYAMSWFRQAPGKGLEWVGFIRSKAYGGTTGYAASVKGRFTISRDDSKSIAYLQMNSLKTEDTAVYYCTTADDDMDVWGKGTTVTVSS
VL: NFMLTQPHSVSESPGKTVTISCTRSSGTIASNYVQWYQQRPGSAPTTVIYEDNQRPSGVPDRFSGSIDRSSNSASLTISGLTPDDEADYYCQSYDTSNHYVFGTGTKVTVL
B10 gave a Kd of 6.61 nM.

For the origin of these results see patent US20240409617A1 (published 2024).
